# In patent US20180169233A1 (MOSAIC BIOMEDICALS S L, published 2018):
# B1: h5D8 (humanized 5D8 comprising H2 and L2) (antibody, human IgG1, kappa, V domains shown)
# VH: QVQLQESGGGLVKPGGSLRLSCAASGFTFSHAWMHWVRQAPGKGLEWVGQIKAKSDDYATYYAESVKGRFTISRDDSKNTLYLQMNSLKTEDTAVYYCTCWEWDLDFWGQGTMVTVSS
# VL: DIVMTQTPLSSPVTLGQPASISCRSSQSLLDSDGHTYLNWLQQRPGQPPRLLIYSVSNLESGVPDRFSGSGAGTDFTLKISRVEAEDVGVYYCMQATHAPPYTFGQGTKLEIKR
# Target: human LIF (source not stated) (human, UniProt P15018 23-202)
# Assay: cell-based or functional assay
# Sequence of human LIF (source not stated) (P15018 23-202 limits assumed): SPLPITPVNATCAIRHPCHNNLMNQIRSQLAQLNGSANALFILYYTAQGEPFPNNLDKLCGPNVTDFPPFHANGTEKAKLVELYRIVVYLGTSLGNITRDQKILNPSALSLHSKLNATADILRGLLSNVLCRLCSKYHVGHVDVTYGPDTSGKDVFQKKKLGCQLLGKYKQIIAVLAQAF
binder,measurement,value
B1,"IC50 for biological inhibition (pSTAT3, U-251 cells, serum starved, endogenous LIF)",490 picomolar
